Data as given in PMC6662825, “The MTR4 helicase recruits nuclear adaptors of the human RNA exosome using distinct arch-interacting motifs” (Nature Communications, 2019).
Residue numbers refer to the chain shown, from its start. Numbers in names are those of the source.

T1: GST-MTR4-∆N (human, UniProt P42285 75-1042)
T1 construct: Tag is cleavable with 3C protease; kept for the GST pull-downs; also called GST-tagged MTR4∆N; source: E. coli BL21 star (DE3), purified (Ni-NTA, heparin, SEC); not shown: 6xHis-GST, N-terminal, kept
T1 sequence (looked up): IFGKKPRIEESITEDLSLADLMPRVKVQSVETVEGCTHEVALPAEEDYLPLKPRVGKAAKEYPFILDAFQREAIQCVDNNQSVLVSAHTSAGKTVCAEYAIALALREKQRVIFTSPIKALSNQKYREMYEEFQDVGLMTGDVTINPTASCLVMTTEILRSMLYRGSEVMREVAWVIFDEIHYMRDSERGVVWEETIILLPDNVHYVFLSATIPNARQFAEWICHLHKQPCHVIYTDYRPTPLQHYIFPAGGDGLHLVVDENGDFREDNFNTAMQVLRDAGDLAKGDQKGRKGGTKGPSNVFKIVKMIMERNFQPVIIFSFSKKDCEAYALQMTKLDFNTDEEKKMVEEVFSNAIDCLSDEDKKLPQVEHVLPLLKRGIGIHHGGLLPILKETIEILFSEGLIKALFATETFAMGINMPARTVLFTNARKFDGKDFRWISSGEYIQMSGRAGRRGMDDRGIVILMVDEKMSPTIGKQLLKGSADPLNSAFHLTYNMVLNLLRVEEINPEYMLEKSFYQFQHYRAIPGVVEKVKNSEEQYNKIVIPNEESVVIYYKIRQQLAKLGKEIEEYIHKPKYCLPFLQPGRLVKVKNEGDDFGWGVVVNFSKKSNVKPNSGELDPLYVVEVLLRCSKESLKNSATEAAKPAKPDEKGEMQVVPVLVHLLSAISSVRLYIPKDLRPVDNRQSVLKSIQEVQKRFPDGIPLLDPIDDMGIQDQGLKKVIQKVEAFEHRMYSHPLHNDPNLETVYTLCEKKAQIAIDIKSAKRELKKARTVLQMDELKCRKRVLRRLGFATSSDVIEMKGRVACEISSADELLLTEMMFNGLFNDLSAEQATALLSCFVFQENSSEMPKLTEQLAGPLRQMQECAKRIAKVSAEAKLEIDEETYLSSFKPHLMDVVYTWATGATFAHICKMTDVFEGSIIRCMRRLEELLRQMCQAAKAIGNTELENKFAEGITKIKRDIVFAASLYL

T2: MTR4-KOW (human, UniProt P42285 645-787)
T2 construct: human MTR4 KOW domain, residues 645–787; Named without GST in MST, NMR and ITC; the methods say the His-GST tag was cleaved with 3C protease 'when appropriate', so it was probably removed; Isotope-labelled for NMR; also called unlabeled MTR4 KOW; 15N-labelled MTR4-KOW; source: E. coli BL21 star (DE3), purified (Ni-NTA, heparin, SEC); minimal medium with 15N/13C for NMR
T2 sequence (looked up): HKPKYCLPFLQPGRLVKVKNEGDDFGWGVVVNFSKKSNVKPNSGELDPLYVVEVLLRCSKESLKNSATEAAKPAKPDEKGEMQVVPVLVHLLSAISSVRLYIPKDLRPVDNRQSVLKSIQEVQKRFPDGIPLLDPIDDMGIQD

T3: GST-MTR4∆N R743E (human, UniProt P42285 75-1042, R743E)
T3 construct: also called R743E mutant; source: E. coli BL21 star (DE3), purified (Ni-NTA, heparin, SEC); not shown: 6xHis-GST, N-terminal, kept
T3 sequence (looked up): T1 sequence (looked up) with R669E

B1: Trx-NVL^1–266 (domain or fragment, human, UniProt O15381 1-266, looked up)
chain: MKPRPAGFVDNKLKQRVIQYLTSNKCGKYVDIGVLASDLQRVYSIDYGRRKRNAFRIQVEKVFSIISSEKELKNLTELEDEHLAKRARQGEEDNEYTESYSDDDSSMEDYPDPQSANHMNSSLLSLYRKGNPDSVSNTPEMEQRETTSSTPRISSKTGSIPLKTPAKDSEGGWFIDKTPSVKKDSFFLDLSCEKSNPKKPITEIQDSKDSSLLESDMKRKGKLKNKGSKRKKEDLQEVDGEIEAVLQKKAKARGLEFQISNVKFED
notes: also called N-terminal region of human NVL tagged with thioredoxin; source: E. coli BL21 star (DE3), purified (Ni-NTA, SEC); not shown: 6xHis-Trx, N-terminal, kept
B2: GST-MTR4-KOW (domain or fragment, human, UniProt P42285 645-787, looked up)
chain: T2 sequence (looked up)
notes: human MTR4 KOW domain, residues 645–787; also called GST-tagged MTR4 KOW; source: E. coli BL21 star (DE3), purified (Ni-NTA, heparin, SEC); not shown: 6xHis-GST, N-terminal, kept
B3: NVL^167–216 D176A (domain or fragment, human, UniProt O15381 167-216, looked up)
chain: KDSEGGWFIAKTPSVKKDSFFLDLSCEKSNPKKPITEIQDSKDSSLLESD
notes: The methods give Trx-NVL constructs for the NVL pull-downs, so the Trx tag was probably kept; also called D176A mutant; source: E. coli BL21 star (DE3), purified (Ni-NTA, SEC)
B4: Trx-NVL^167–216 F186A D189R (domain or fragment, human, UniProt O15381 167-216, looked up)
chain: B3 chain with A10D, F20A, D23R
notes: also called F186A and D189R mutations in the Nop53-like stretch; source: E. coli BL21 star (DE3), purified (Ni-NTA, SEC); not shown: 6xHis-Trx, N-terminal, kept
B5: MBP-ZCCHC8^91–211-(GS)3-eYFP (domain or fragment, human, UniProt Q6NZY4 91-211, looked up)
chain: DGPILQILFMNNAISKQYHQEIEEFVSNLVKRFEEQQKNDVEKTSFNLLPQPSSIVLEEDHKVEESCAIKNNKEAFSVVGSVLYFTNFCLDKLGQPLLNENPQLSEGWEIPKYHQVFSHIV
notes: also called ZCCHC8-YFP fusion protein; source: E. coli BL21 star (DE3), purified (Ni-NTA, SEC); not shown: 6xHis-MBP, N-terminal, kept; (GS)3-eYFP, C-terminal, kept
B6: MBP-ZCCHC8^91–211 (domain or fragment, human, UniProt Q6NZY4 91-211, looked up)
chain: B5 chain
notes: source: E. coli BL21 star (DE3), purified (Ni-NTA, SEC); not shown: 6xHis-MBP, N-terminal, kept
B7: MBP-ZCCHC8^91–211 W198A/K202E (domain or fragment, human, UniProt Q6NZY4 91-211, looked up)
chain: B5 chain with W108A, K112E
notes: also called W198A/K202E mutant; source: E. coli BL21 star (DE3), purified (Ni-NTA, SEC); not shown: 6xHis-MBP, N-terminal, kept
B8: MBP-ZCCHC8^91–211 F178A/D181R (domain or fragment, human, UniProt Q6NZY4 91-211, looked up)
chain: B5 chain with F88A, D91R
notes: also called F178A/D181R mutant; source: E. coli BL21 star (DE3), purified (Ni-NTA, SEC); not shown: 6xHis-MBP, N-terminal, kept

Assays:
Details in all cases: both partners purified
GST-MTR4-∆N [1] = target: T1, GST-MTR4-∆N; test: pull-down; GST-tagged MTR4 constructs as bait, Trx-NVL constructs as prey, glutathione sepharose; 10 μM GST-MTR4∆N with 20 μM Trx-NVL constructs; 50 mM Hepes pH 7.5, 150 mM NaCl, 5% glycerol, 0.05% NP40, 1 mM DTT, 30 min at 4 °C; SDS-PAGE, Coomassie
Trx-NVL^1–266 = target: B1; test: as above
MTR4-KOW = target: T2, MTR4-KOW; test: MST; 1 μM MBP-ZCCHC8^91–211-(GS)3-eYFP with a 1:1 dilution series of unlabeled MTR4-KOW; 50 mM Hepes/NaOH pH 7.5, 150 mM NaCl, 5% glycerol, 0.5 mM TCEP; MST power 70%, LED power 15%; triplicates
GST-MTR4∆N R743E = target: T3, GST-MTR4∆N R743E; test: pull-down; GST-tagged MTR4 constructs as bait, MBP-ZCCHC8 constructs as prey, glutathione sepharose; 2 μM GST-MTR4∆N with 8 μM MBP-ZCCHC8 constructs; 50 mM Hepes pH 7.5, 150 mM NaCl, 5% glycerol, 0.05% NP40, 1 mM DTT, 30 min at 4 °C; SDS-PAGE, Coomassie
GST-MTR4-∆N [2] = target: T1, GST-MTR4-∆N; test: as above

B1: binds (GST-MTR4-∆N [1]).

B2: binds (Trx-NVL^1–266).

B3: binds (GST-MTR4-∆N [1]).

B4: binds (GST-MTR4-∆N [1]).

In the case of B5, the Kd (MTR4-KOW) is reported as about 300 nM.

B6: binds (GST-MTR4∆N R743E).

B7: binds (GST-MTR4-∆N [2]).

B8: binds (GST-MTR4-∆N [2]).
